Laboratory results reported in paper PMC6208404, “Calcium sensing by the STIM1 ER-luminal domain” (Nature Communications, 2018).

Molecular target: the molecule itself
Test: FRET or BRET; in vitro; purified protein randomly labelled with fluorescein (donor) and Alexa Fluor 594 (acceptor) at an engineered N-terminal cysteine; 250 nM protein, 22 °C, excitation 420 nm; Chelex-treated Ca2+-free buffer, FRET reduced as Ca2+ was added

B1: single-cysteine EFSAM-GrpE (CGG-EFSAM(58-209)-linker-GrpE(1-171)), labelled with fluorescein and/or Alexa Fluor 594 (other, mouse | Thermus thermophilus HB8)
chain: CGGSEDEKLSFEAVRNIHKLMDDDANGDVDVEESDEFLREDLNYHDPTVKHSTFHGEDKLISVEDLWKAWKSSEVYNWTVDEVIQWLITYVELPQYEETFRKLQLTGHAMPRLAVTNTTMTGTVLKMTDRSHRQKLQLKALDTVLFGPPLLTRHNLELSRANSSTLAAVTSGSELMEERNHENTLEKDLEAVGQEAQALEERLKAAEEELKGLKDKYLRLLADFDNYRKRMEEELKAREREGVLKALRALLPVLDDLDRALEFAEASPESIRQGVRAIRDGFFRILAGLGVEEVPGEGEAFDPRYHEAVGLLPGEPGKVAKVFQRGFRMGEALVRPARVAVGEEKR
modifications: fluorescein-5-maleimide or Alexa Fluor 594 C5 maleimide on the engineered N-terminal cysteine (random labelling, ~0.8-0.9:1 fluorophore to protein)
notes: engineered stretch with the single cysteine, immediately N-terminal to EFSAM residue 58; STIM1 ER-luminal EFSAM domain, mouse, residues 58-209; linker between EFSAM and GrpE; GrpE, Thermus thermophilus HB8, residues 1-171 (nucleotides 2222-2734 of GenBank AB012390.1); also called double-labelled EFSAM-GrpE; donor/acceptor-labelled EFSAM-GrpE; source: E. coli BL21, purified (Ni-NTA, Superdex 200 …)
binding result: binds
